According to patent US20230257716A1 (priority 2020, published 2023):

B1: WNT3A: exogenous WNT growth factor (R&D) (protein, UniProt P56704 19-352, looked up)
Protein Wnt-3a: SYPIWWSLAVGPQYSSLGSQPILCASIPGLVPKQLRFCRNYVEIMPSVAEGIKIGIQECQHQFRGRRWNCTTVHDSLAIFGPVLDKATRESAFVHAIASAGVAFAVTRSCAEGTAAICGCSSRHQGSPGKGWKWGGCSEDIEFGGMVSREFADARENRPDARSAMNRHNNEAGRQAIASHMHLKCKCHGLSGSCEVKTCWWSQPDFRAIGDFLKDKYDSASEMVVEKHRESRGWVETLRPRYTYFKVPTERDLVYYEASPNFCEPNPETGSFGTRDRTCNVSSHGIDGCDLLCCGRGHNARAERRREKCRCVFHWCCYVSCQECTRVYDVHTCK
B2: NOGGIN: recombinant human NOGGIN, BMP antagonist (protein, UniProt Q13253 28-232, looked up)
Noggin: QHYLHIRPAPSDNLPLVDLIEHPDPIFDPKEKDLNETLLRSLLGGHYDPGFMATSPPEDRPGGGGGAAGGAEDLAELDQLLRQRPSGAMPSEIKGLEFSEGLAQGKKQRLSKKLRRKLQMWLWSQTFCPVLYAWNDLGSRFWPRYVKVGSCFSKRSCSVPEGMVCKPSKSVHLTVLRWRCQRRGGQRCGWIPIQYPIISECKCSC
B3: R-SPONDIN1: exogenous growth factor R-spondin 1 (Peprotech) (protein, UniProt Q2MKA7 21-263, looked up)
R-spondin-1: SRGIKGKRQRRISAEGSQACAKGCELCSEVNGCLKCSPKLFILLERNDIRQVGVCLPSCPPGYFDARNPDMNKCIKCKIEHCEACFSHNFCTKCKEGLYLHKGRCYPACPEGSSAANGTMECSSPAQCEMSEWSPWGPCSKKQQLCGFRRGSEERTRRVLHAPVGDHAACSDTKETRRCTVRRVPCPEGQKRRKGGQGRRENANRNLARKESKEAGAGSRRRKGQQQQQQQGTVGPLTSAGPA

system: basal organoids; test: Growth factor evaluation for basal organoids after sedimentation and clonogenic culture; format: cell-based, human; conditions: pure basal cell cultures; EGF and Noggin together
Excerpt: (§1) Screening exogenous growth factors in organoid culture.
Density sedimentation of basal cells. Organoid cultures within 2-3 weeks of primary plating were dissociated with 1 U/ml neutral protease (Worthington, Cat LS02100) and 100 KU of DNase I in organoid media. Basal organoids were then collected by gravity sedimentation and the supernatant was either aspirated or collected for downstream use. Basal organoids were then further fractionated on a custom Ficoll-Paque gradient (4 vol Ficoll-Paque to 1 vol PBS) and centrifuged at 300×g for 10 minutes at room temperature. The supernatant was aspirated and the organoid pellet was resuspended in 10 ml PBS in a 15 ml conical tube, collected by gravity sedimentation, and plated into ECM as described above.

Molecule | basal organoid growth with exogenous growth factors
B1 | without additive effects
B2 | sufficient for maximal growth
B3 | without additive effects

system: human distal lung organoids; test: Screening exogenous growth factors in distal lung organoid culture; format: cell-based; conditions: single cell suspensions of distal lung, feeder-free; EGF and NOGGIN in combination
Excerpt: as §1

Molecule | distal lung organoid growth with exogenous growth factors
B1 | without any additional growth-promoting effects
B2 | optimal
B3 | without any additional growth-promoting effects

system: AT2 organoids; test: AT2 organoid proliferation with niche factors and PORCUPINE inhibitor; conditions: EGF and NOGGIN together; WNT-3A and RSPONDIN-1 added exogenously
Description: Screening exogenous growth factors in organoid culture. Distal airway cells were isolated and plated as above with the following exceptions: ADMEM/F12 was used instead of organoid medium during elastase digestion of lung tissue, cells were serially diluted and filtered through a 40 micron cell strainer and counted with a hemocytometer. 1000 viable epithelial cells (by Trypan blue exclusion, size, and morphology) per μL ECM were plated per 5 μL Matrigel droplet per well. Base media consisted of organoid media lacking A83-01, EGF, NOGGIN, WNT3A or RSPO1. EGF (final 50 ng/ml, R&D), NOGGIN (final 100 ng/ml, R&D), WNT3A (final 100 ng/ml, R&D), RSPO1 (final 500 ng/ml, Peprotech) or the PORCUPINE inhibitor C59 (final 1μM, Biogems) were added singly or in combination to base media. Images were obtained ten days after primary plating with an inverted light microscope at 5X magnification. Each condition was plated in quadruplicate and organoid formation was quantified using the analyze particle (threshold=4902 pixels) plugin in ImageJ as previously described.

Molecule | clonal AT2 organoid proliferation with exogenous growth factors
B1 | did not enhance growth
B2 | sufficient for clonal AT2 organoid proliferation
B3 | did not enhance growth
